In test [1] the target is Heat shock cognate 71 kDa protein (chicken (endogenous in DF-1)) (UniProt O73885).
For test [2] the target is unchanged. This is another data set of the same source.

Chain of UniProt O73885 (O73885 whole entry): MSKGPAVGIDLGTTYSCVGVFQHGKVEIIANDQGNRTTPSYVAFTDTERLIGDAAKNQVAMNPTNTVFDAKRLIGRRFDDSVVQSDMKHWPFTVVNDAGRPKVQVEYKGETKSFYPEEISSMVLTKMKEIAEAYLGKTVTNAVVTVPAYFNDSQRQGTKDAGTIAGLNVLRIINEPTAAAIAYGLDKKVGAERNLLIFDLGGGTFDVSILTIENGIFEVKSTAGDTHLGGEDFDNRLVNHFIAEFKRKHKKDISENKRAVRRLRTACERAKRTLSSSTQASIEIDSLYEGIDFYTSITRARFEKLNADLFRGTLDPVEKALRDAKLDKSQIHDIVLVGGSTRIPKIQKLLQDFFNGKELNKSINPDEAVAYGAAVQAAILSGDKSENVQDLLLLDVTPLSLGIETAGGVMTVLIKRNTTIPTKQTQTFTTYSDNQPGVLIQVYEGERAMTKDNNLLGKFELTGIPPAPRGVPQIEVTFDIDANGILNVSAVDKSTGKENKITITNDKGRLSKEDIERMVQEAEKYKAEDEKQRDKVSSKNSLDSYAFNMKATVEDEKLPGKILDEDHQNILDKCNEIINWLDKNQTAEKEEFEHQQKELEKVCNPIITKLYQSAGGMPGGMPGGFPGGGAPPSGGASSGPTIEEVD

In the case of IBDV VP2 protein (natural protein), the viral titer of IBDV in DF-1 cells pretreated with 5 uM of the HSC70 inhibitor VER155008, 24-72 h after infection (untreated control 3.15-7.23), whole IBDV virus (log10TCID50/mL) in test [1] amounted to 0. Also, the VP2/GAPDH by western blot in DF-1 cells pretreated with anti-HSC70 antibody at 25, 12.5 and 6.25 ug/mL and infected with IBDV (normal IgG 3.329, no antibody 3.345) in test [2] stood at 1.43 VP2/GAPDH.

For the origin of these results see article PMC7201719.
